Assay results as given in US20130129739A1 (Bayer, published 2013).

Molecular target: T1, extracellular domain of human PRLR (monomeric, soluble) (human, UniProt P16471 25-234)
T1 construct: also called ECD-PRLR; ECD of PRLR
T1 sequence: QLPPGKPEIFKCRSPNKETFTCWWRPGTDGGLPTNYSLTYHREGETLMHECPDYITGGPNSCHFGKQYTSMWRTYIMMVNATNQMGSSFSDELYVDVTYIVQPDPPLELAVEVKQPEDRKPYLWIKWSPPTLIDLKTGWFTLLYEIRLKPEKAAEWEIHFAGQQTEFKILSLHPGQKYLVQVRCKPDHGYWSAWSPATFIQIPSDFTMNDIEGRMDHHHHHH
Experiment: ELISA: plate coated with human PRLR extracellular domain, Fab-containing E. coli supernatant, anti-flag-HRP, Amplex Red
Description: 96 well microtiter plates were coated with 1 μg per milliliter of human PRLR. Plates were incubated over night at 4° C. After blocking with PBS buffer containing 3% bovine serum albumin, normalized E. coli-derived supernatants containing the Fab variants were added. Detection of formed complexes occurred via the addition of an anti-flag antibody (Sigma, A8592) labeled with horseradish peroxidase.

B1: 005-C04-41-2 (Fab, V domains shown)
VH: EVQLLESGGGLVQPGGSLRLSCAASGFTFSSYWNHWVRQAPGKGLEWVSDISRASSYTNYADSVKGRFTISRDNSKNTLYLQMNSLRAEDTAVYYCARGLDARRMDYWGQGTLVTVTS
VL: QSVLTQPPSASGTPGQRVTISCTGSSSNIGYGYVVHWYQQLPGTAPKLLIYRNNQRPSGVPDRFSGSKSGTSASLAISGLRSEDEADYYCAAWDDSLNGWLFGGGTKLTVLG
notes: Maturated 005-C04 variant; Fab in E. coli supernatant, flag-detected
Question: Does B1 bind?
Answer: binds

B2: 005-C04-2-2 (Fab, V domains shown)
VH: EVQLLESGGGLVQPGGSLRLSCAASGFTFSSYWNHWVRQAPGKGLEWVSDMARLSPYTNYADSVKGRFTISRDNSKNTLYLQMNSLRAEDTAVYYCARGLDARRMDYWGQGTLVTVTS
VL: QSVLTQPPSASGTPGQRVTISCTGSSSNIGYGYVVHWYQQLPGTAPKLLIYRNNVRQSGVPDRFSGSKSGTSASLAISGLRSEDEADYYCAAWDDSLNGWLFGGGTKLTVLG
notes: as for B1
Question: Does B2 bind?
Answer: binds

B3: 005-C04-2-7 (Fab, V domains shown)
VH: EVQLLESGGGLVQPGGSLRLSCAASGFTFSSYWWHWVRQAPGKGLEWVSDISRASPYTNYADSVKGRFTISRDNSKNTLYLQMNSLRAEDTAVYYCARGLDARRMDYWGQGTLVTVTS
VL: QSVLTQPPSASGTPGQRVTISCTGVSSNIGAGYVVHWYQQLPGTAPKLLIYRNNQRPSGVPDRFSGSKSGTSASLAISGLRSEDEADYYCAAWDDSLNGWLFGGGTKLTVLG
notes: as for B1
Question: Does B3 bind?
Answer: binds

B4: 005-C04-4-3-7 (Fab, V domains shown)
VH: EVQLLESGGGLVQPGGSLRLSCAASGFTFSSYWMHWVRQAPGKGLEWVSDISSASSYTNYADSVKGRFTISRDNSKNTLYLQMNSLRAEDTAVYYCARGLDARRMDYWGQGTLVTVTS
VL: QSVLTQPPSASGTPGQRVTISCTGSSSNIGYGYVVHWYQQLPGTAPKLLIYRNNQRPSGVPDRFSGSKSGTSASLAISGLRSEDEADYYCAAWDDSLNGWLFGGGTKLTVLG
notes: as for B1
Question: Does B4 bind?
Answer: binds

B5: 005-C04-8-6 (Fab, V domains shown)
VH: EVQLLESGGGLVQPGGSLRLSCAASGFTFSSYWWHWVRQAPGKGLEWVSDMSRASSYTNYADSVKGRFTISRDNSKNTLYLQMNSLRAEDTAVYYCARGLDARRMDYWGQGTLVTVTS
VL: QSVLTQPPSASGTPGQRVTISCTGQSSNIGAGYVVHWYQQLPGTAPKLLIYRNNQRPSGVPDRFSGSKSGTSASLAISGLRSEDEADYYCAAWDDSLNGWLFGGGTKLTVLG
notes: as for B1
Question: Does B5 bind?
Answer: binds

B6: 005-C04-9-2 (Fab, V domains shown)
VH: EVQLLESGGGLVQPGGSLRLSCAASGFTFSSYWWHWVRQAPGKGLEWVSDIARASSYTNYADSVKGRFTISRDNSKNTLYLQMNSLRAEDTAVYYCARGLDARRMDYWGQGTLVTVTS
VL: QSVLTQPPSASGTPGQRVTISCTGSSSNIGYGYVVHWYQQLPGTAPKLLIYRNNWRQSGVPDRFSGSKSGTSASLAISGLRSEDEADYYCAAWDDSLNGWLFGGGTKLTVLG
notes: as for B1
Question: Does B6 bind?
Answer: binds

B7: 005-C04-10-3 (Fab, V domains shown)
VH: EVQLLESGGGLVQPGGSLRLSCAASGFTFSSYWWHWVRQAPGKGLEWVSDIARLSPYTNYADSVKGRFTISRDNSKNTLYLQMNSLRAEDTAVYYCARGLDARRMDYWGQGTLVTVTS
VL: QSVLTQPPSASGTPGQRVTISCTGSSSNIGYGYVVHWYQQLPGTAPKLLIYRNNVRQSGVPDRFSGSKSGTSASLAISGLRSEDEADYYCAAWDDSLNGWLFGGGTKLTVLG
notes: as for B1
Question: Does B7 bind?
Answer: binds

B8: 005-C04-11-5 (Fab, V domains shown)
VH: EVQLLESGGGLVQPGGSLRLSCAASGFTFSSYWWHWVRQAPGKGLEWVSDISRLSPYTNYADSVKGRFTISRDNSKNTLYLQMNSLRAEDTAVYYCARGLDARRMDYWGQGTLVTVTS
VL: QSVLTQPPSASGTPGQRVTISCTGSSSNIGYGYVVHWYQQLPGTAPKLLIYRNNVRPSGVPDRFSGSKSGTSASLAISGLRSEDEADYYCAAWDDSLNGWLFGGGTKLTVLG
notes: as for B1
Question: Does B8 bind?
Answer: binds

B9: 005-C04-18-10-2 (Fab, V domains shown)
VH: EVQLLESGGGLVQPGGSLRLSCAASGFTFSSYWMHWVRQAPGKGLEWVSDISSASSYTNYADSVKGRFTISRDNSKNTLYLQMNSLRAEDTAVYYCARGLDARRMDYWGQGTLVTVTS
VL: QSVLTQPPSASGTPGQRVTISCTGSSSNIGAGYVVHWYQQLPGTAPKLLIYRNNVRPSGVPDRFSGSKSGTSASLAISGLRSEDEADYYCAAWDDSLNGWLFGGGTKLTVLG
notes: as for B1
Question: Does B9 bind?
Answer: binds

B10: 005-C04-18-10-4 (Fab, V domains shown)
VH: EVQLLESGGGLVQPGGSLRLSCAASGFTFSSYWMHWVRQAPGKGLEWVSDISSASSYTNYADSVKGRFTISRDNSKNTLYLQMNSLRAEDTAVYYCARGLDARRMDYWGQGTLVTVTS
VL: QSVLTQPPSASGTPGQRVTISCTGSSSNIGAGYVVHWYQQLPGTAPKLLIYRNNWRPSGVPDRFSGSKSGTSASLAISGLRSEDEADYYCAAWDDSLNGWLFGGGTKLTVLG
notes: as for B1
Question: Does B10 bind?
Answer: binds

B11: 005-C04-19-2 (Fab, V domains shown)
VH: EVQLLESGGGLVQPGGSLRLSCAASGFTFSSYWNHWVRQAPGKGLEWVSDMARLSPYTNYADSVKGRFTISRDNSKNTLYLQMNSLRAEDTAVYYCARGLDARRMDYWGQGTLVTVTS
VL: QSVLTQPPSASGTPGQRVTISCTGSSSNIGYGYVVHWYQQLPGTAPKLLIYRNNQRQSGVPDRFSGSKSGTSASLAISGLRSEDEADYYCAAWDDSLNGWLFGGGTKLTVLG
notes: as for B1
Question: Does B11 bind?
Answer: binds

B12: 005-C04-20-2 (Fab, V domains shown)
VH: EVQLLESGGGLVQPGGSLRLSCAASGFTFSSYWNHWVRQAPGKGLEWVSDIARLSSYTNYADSVKGRFTISRDNSKNTLYLQMNSLRAEDTAVYYCARGLDARRMDYWGQGTLVTVTS
VL: QSVLTQPPSASGTPGQRVTISCTGSSSNIGYGYVVHWYQQLPGTAPKLLIYRNNQRPSGVPDRFSGSKSGTSASLAISGLRSEDEADYYCAAWDDSLNGWLFGGGTKLTVLG
notes: as for B1
Question: Does B12 bind?
Answer: binds

B13: 005-C04-20-12-7 (Fab, V domains shown)
VH: EVQLLESGGGLVQPGGSLRLSCAASGFTFSSYWMHWVRQAPGKGLEWVSDISSASSYTNYADSVKGRFTISRDNSKNTLYLQMNSLRAEDTAVYYCARGLDARRMDYWGQGTLVTVTS
VL: QSVLTQPPSASGTPGQRVTISCTGSSSNIGAGYVVHWYQQLPGTAPKLLIYRNNQRQSGVPDRFSGSKSGTSASLAISGLRSEDEADYYCAAWDDSLNGWLFGGGTKLTVLG
notes: as for B1
Question: Does B13 bind?
Answer: binds

B14: 005-C04-21-1 (Fab, V domains shown)
VH: EVQLLESGGGLVQPGGSLRLSCAASGFTFSSYWNHWVRQAPGKGLEWVSDIARLSPYTNYADSVKGRFTISRDNSKNTLYLQMNSLRAEDTAVYYCARGLDARRMDYWGQGTLVTVTS
VL: QSVLTQPPSASGTPGQRVTISCTGSSSNIGYGYVVHWYQQLPGTAPKLLIYRNNVRQSGVPDRFSGSKSGTSASLAISGLRSEDEADYYCAAWDDSLNGWLFGGGTKLTVLG
notes: as for B1
Question: Does B14 bind?
Answer: binds

B15: 005-C04-21-2 (Fab, V domains shown)
VH: EVQLLESGGGLVQPGGSLRLSCAASGFTFSSYWNHWVRQAPGKGLEWVSDMARASPYTNYADSVKGRFTISRDNSKNTLYLQMNSLRAEDTAVYYCARGLDARRMDYWGQGTLVTVTS
VL: QSVLTQPPSASGTPGQRVTISCTGSSSNIGYGYVVHWYQQLPGTAPKLLIYRNNVRPSGVPDRFSGSKSGTSASLAISGLRSEDEADYYCAAWDDSLNGWLFGGGTKLTVLG
notes: as for B1
Question: Does B15 bind?
Answer: binds
